Experimental data from paper PMC8359929.

Substrate: N[C@@H](C(=O)O)[C@@H](O)[C@H](O)[C@H](O)COP(=O)(O)O
Test: purified protein
Format: biochemical, Salmonella enterica
Details: 0.1 M triethanolamine-HCl pH 8.0, 37 °C, 0.2 mM NADH

B1: D-glucosaminate-6-phosphate ammonia-lyase (DGL), native (Salmonella enterica subsp. enterica serovar Typhimurium str. 14028S) (protein)
chain: MTPNIYQQLGLKKVINACGKMTILGVSSVAPEVMQATARAASAFVEIDALVEKTGELVSRYTGAEDSYITSCASAGIAIAVAAAITHGDRARVALMPDSSGMANEVVMLRGHNVDYGAPVTSAIRLGGGRIVEVGSSNLATRWQLESAINEKTAALLYVKSHHCVQKGMLSIDDFVQVAQANHLPLIVDAAAEEDLRGWVASGADMVIYSGAKAFNAPTSGFITGRKTWIAACKAQHQGIARAMKIGKENMVGLVYALENYHQGQTTVTAAQLQPVAEAISAIHGLYADIEQDEAGRAIWRIRVRVNASELGLNAQDVEAQLRGGEIAIYARKYQLHQGVFSLDPRTVAEGEMALIVARLREIAEHAAD
Km: 139 ± 26 µM
kcat: 27.4 ± 1.4 s⁻¹
kcat/Km: 197000 ± 31000 M⁻¹ s⁻¹
